Literature values in paper PMC3776556, “Crystal structures of the CPAP/STIL complex reveal its role in centriole assembly and human microcephaly” (eLife, 2013).

Key:
[1] = tested on: centrioles in human cells; details: ref Kitagawa et al., 2011a; cited from earlier work
From the text: The structures we report here rev ...

[2] = tested on: human STIL; details: ref Tang et al., 2011; cited from earlier work
From the text: Of particular interest in this regard is the putative centriolar CPAP–STIL complex, as mutations in both components result in MCPH ([Leal et al., 2003]; [Bond et al., 2005]; [Gul et al., 2006]; [Darvish et al., 2010]). CPAP and STIL are strictly required for centriole assembly: STIL at a very early stage ([Stevens et al., 2010b]; [Tang et al., 2011]; [Kitagawa et al., 2011a]; [Arquint et al., 2012]; [Vulprecht et al., 2012]) and CPAP slightly later ([Kirkham et al., 2003]; [Leidel and Gonczy, 2003]; [Basto et al., 2006]; [Kleylein-Sohn et al., 2007]; [Dobbelaere et al., 2008]; [Vulprecht et al ...

B1: E1235V: human CPAP with MCPH mutation E1235V (cited studies) (protein, UniProt Q9HC77 1-1338, looked up, variant E1235V)
Centrosomal P4.1-associated …: MFLMPTSSELNSGQNFLTQWMTNPSRAGVILNRGFPILEADKEKRAAVDISTSFPIKGTHFSDSFSFINEEDSLLEEQKLESNNPYKPQSDKSETHTAFPCIKKGPQVAACHSAPGHQEENKNDFIPDLASEFKEGAYKDPLFKKLEQLKEVQQKKQEQLKRQQLEQLQRLMEEQEKLLTMVSGQCTLPGLSLLPDDQSQKHRSPGNTTTGERATCCFPSYVYPDPTQEETYPSNILSHEQSNFCRTAHGDFVLTSKRASPNLFSEAQYQEAPVEKNNLKEENRNHPTGESILCWEKVTEQIQEANDKNLQKHDDSSEVANIEERPIKAAIGERKQTFEDYLEEQIQLEEQELKQKQLKEAEGPLPIKAKPKQPFLKRGEGLARFTNAKSKFQKGKESKLVTNQSTSEDQPLFKMDRQQLQRKTALKNKELCADNPILKKDSKARTKSGSVTLSQKPKMLKCSNRKSLSPSGLKIQTGKKCDGQFRDQIKFENKVTSNNKENVTECPKPCDTGCTGWNKTQGKDRLPLSTGPASRLAAKSPIRETMKESESSLDVSLQKKLETWEREKEKENLELDEFLFLEQAADEISFSSNSSFVLKILERDQQICKGHRMSSTPVKAVPQKTNPADPISHCNRSEDLDHTAREKESECEVAPKQLHSLSSADELREQPCKIRKAVQKSTSENQTEWNARDDEGVPNSDSSTDSEEQLDVTIKPSTEDRERGISSREDSPQVCDDKGPFKDTRTQEDKRRDVDLDLSDKDYSSDESIMESIKHKVSEPSRSSSLSLSKMDFDDERTWTDLEENLCNHDVVLGNESTYGTPQTCYPNNEIGILDKTIKRKIAPVKRGEDLSKSRRSRSPPTSELMMKFFPSLKPKPKSDSHLGNELKLNISQDQPPGDNARSQVLREKIIELETEIEKFKAENASLAKLRIERESALEKLRKEIADFEQQKAKELARIEEFKKEEMRKLQKERKVFEKYTTAARTFPDKKEREEIQTLKQQIADLREDLKRKETKWSSTHSRLRSQIQMLVRENTDLREEIKVMERFRLDAWKRAEAIESSLEVEKKDKLANTSVRFQNSQISSGTQVEKYKKNYLPMQGNPPRRSKSAPPRDLGNLDKGQAASPREPLEPLNFPDPEYKEEEEDQDIQGEISHPDGKVEKVYKNGCRVILFPNGTRKEVSADGKTITVTFFNGDVKQVMPDQRVIYYYAAAQTTHTTYPEGLEVLHFSSGQIVKHYPDGRKEITFPDQTVKNLFPDGQEESIFPDGTIVRVQRDGNKLIEFNNGQRELHTAQFKRREYPDGTVKTVYANGHQETKYRSGRIRVKDKEGNVLMDTEL
[1]
  centriole duplication: centriole duplication was compromised by both mutations
  centriole overgrowth on overexpression: able to promote centriole overgrowth to a greater extent than the WT protein
  localisation of CPAP to the centriole: did not effect the localisation of CPAP to the centriole
[2]
  yeast-two-hybrid interaction with STIL: appeared to weaken this yeast-two-hybrid interaction
